# In the supplement of paper PMC7877785:
# ± gives the uncertainty stated by the source.
# Test: self-splicing fitness, log relative to wild type (ln ratio); higher = more splicing; Tetrahymena group I intron in knt gene, E. coli kanamycin selection, DiMSum; sequences stand for … in CUCUCU…GGAGGGAAAAGUUAUCAGGCAUGCACCUGGUAGCUAGUCUUUAAACCAAUAGAUUGCAUCGGUUUAAAAGGCAAGACCGUCAAAUUGCGGGAAAGGGGUCAACAGCCGUUCAGUACCAAGUCUCAGGGGAAACUUUGAGAUGGCCUUGCAAAGGGUAUGGUAAUAAGCUGACGGACAUGGUCCUAACCACGCAGCCAAGUCCUAAGUCAACAGAUCUUCUGUUGAUAUGGAUGCAGUUCACAGACUAAAUGUCGGUCGGGGAAGAUGUAUUCUUCUCAUAAGAUAUAGUCGGACCUCUCCUUAAUGGGAGCUAGCGGAUGAAGUGAUGCAACACUGGAGCCGCUGGGAACUAAUUUGUAUGCGAAAGUAUAUUGAUUAGUUUUGGAGUACUCGUGGUCG
# Outline: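 A randomised library covering all eight P1ex-region intron nucleotides was built with the intron in the knt kanamycin-resistance gene on pET-22b(+) and held in E. coli BL21(DE3). Cells were grown overnight at 37°C or 30°C on LB agar, with or without 25 μg/mL kanamycin, plus 100 μg/mL carbenicillin, 50 μM IPTG and 0.2% rhamnose, and pooled colonies were amplicon-sequenced on an Illumina HiSeq 2500. DiMSum fitness is the error-weighted combination of wild-type-normalised replicate fold changes, kanamycin versus none.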
Sequence,self-splicing fitness (ln) (30 °C),self-splicing fitness (ln) (37 °C)
CACUAGCAAUAUUACGGAAU,-4 ± 0.27,-2.3 ± 0.32
CUGUAGCAAUAUUACGACUC,-4.11 ± 0.42,-1 ± 0.3
CUAGAGCAAUAUUACGUACU,-3.83 ± 0.3,-3.27 ± 0.43
AGUUAGCAAUAUUACGUUCU,-0.403 ± 0.1,-0.302 ± 0.11
UUAAAGCAAUAUUACGGACU,-0.204 ± 0.096,-0.0989 ± 0.11
GGGCAGCAAUAUUACGUGGA,-2.81 ± 0.11,-1.62 ± 0.099
GCCAAGCAAUAUUACGAUGG,-3.61 ± 0.15,-1.79 ± 0.16
GAAUAGCAAUAUUACGGACC,-0.00208 ± 0.1,0.0435 ± 0.18
UAGGAGCAAUAUUACGUGGA,-2.34 ± 0.38,-1.43 ± 0.22
AGGAAGCAAUAUUACGCUCG,-0.643 ± 0.16,-0.865 ± 0.21
UGGAAGCAAUAUUACGUACC,-1.73 ± 0.19,-0.601 ± 0.23
GCUCAGCAAUAUUACGGCUC,-0.525 ± 0.13,0.408 ± 0.17
GGCCAGCAAUAUUACGAUGU,-2.4 ± 0.092,-1.92 ± 0.12
AUAGAGCAAUAUUACGCGCG,-1.47 ± 0.2,-0.725 ± 0.23
CACUAGCAAUAUUACGGGAG,-1.54 ± 0.073,-0.152 ± 0.076
AGUAAGCAAUAUUACGUAGU,-3.22 ± 0.14,-2.53 ± 0.16
AUUAAGCAAUAUUACGACCA,-0.395 ± 0.2,-0.571 ± 0.25
GGCAAGCAAUAUUACGGUGU,-1.2 ± 0.059,-0.54 ± 0.09
UGAUAGCAAUAUUACGUUGU,-4.45 ± 0.29,-2.98 ± 0.21
UGGAAGCAAUAUUACGACCU,0.308 ± 0.11,0.699 ± 0.12
CACGAGCAAUAUUACGAUGC,-3.47 ± 0.37,-2.74 ± 0.29
GCUCAGCAAUAUUACGUUCA,-0.466 ± 0.095,-0.686 ± 0.12
GGACAGCAAUAUUACGGUCA,-0.242 ± 0.046,0.817 ± 0.07
CUCCAGCAAUAUUACGGGGG,-3.56 ± 0.16,-2.89 ± 0.19

Sequence,self-splicing fitness (ln) (30 °C),self-splicing fitness (ln) (37 °C)
UACAAGCAAUAUUACGCCUU,-0.984 ± 0.091,-1.04 ± 0.092
GCUUAGCAAUAUUACGCUUC,-3.27 ± 0.47,-1.54 ± 0.29
GCAAAGCAAUAUUACGCUUG,-3.98 ± 0.18,-2.64 ± 0.18
CGGCAGCAAUAUUACGUUCA,-0.358 ± 0.068,0.0795 ± 0.082
GGCCAGCAAUAUUACGGAUU,-0.639 ± 0.056,-0.524 ± 0.063
GACUAGCAAUAUUACGUACA,-1.02 ± 0.14,-0.0348 ± 0.15
GCAAAGCAAUAUUACGAGCC,-2.28 ± 0.28,
GUUGAGCAAUAUUACGAUUU,-1.2 ± 0.12,-1.64 ± 0.16
ACUUAGCAAUAUUACGCAAG,-2.24 ± 0.17,-1.32 ± 0.14
CUUGAGCAAUAUUACGGAGC,,-1.42 ± 0.29
CGGAAGCAAUAUUACGACGG,-0.101 ± 0.13,-0.695 ± 0.14
AUCAAGCAAUAUUACGGGUC,-3.33 ± 0.29,-2.19 ± 0.27
ACUUAGCAAUAUUACGUAAC,-2.9 ± 0.12,-2.43 ± 0.2
UUCAAGCAAUAUUACGGAGA,-1.55 ± 0.18,-1.32 ± 0.19
UAACAGCAAUAUUACGGCAC,-2.47 ± 0.13,-1.63 ± 0.14
GUACAGCAAUAUUACGUAUG,-2.52 ± 0.086,-1.45 ± 0.091
AAAUAGCAAUAUUACGAUUC,-0.544 ± 0.066,-0.733 ± 0.1
GGCGAGCAAUAUUACGACUC,-0.185 ± 0.14,0.173 ± 0.24
CACAAGCAAUAUUACGCCUG,-1.87 ± 0.16,-0.812 ± 0.19
CUCUAGCAAUAUUACGAUGU,-3.53 ± 0.22,-2.92 ± 0.25
AUCUAGCAAUAUUACGGGUC,-5.59 ± 0.41,-2.49 ± 0.23
AUCUAGCAAUAUUACGGAGG,-1.93 ± 0.14,-1.96 ± 0.23
UGUCAGCAAUAUUACGACCC,-0.106 ± 0.22,0.358 ± 0.26
UACGAGCAAUAUUACGCCUC,,-2.06 ± 0.34
